This data set concerns the target T1, wild-type EPSP synthase of tomato (Solanum lycopersicum, UniProt P10748).
T1 construct: ATG translational initiation codon at the site predicted to be the start of the mature enzyme for in vitro expression in E. Coli; initiator methionine (ATG in an engineered NcoI site) (N); made in house; host or cells: E. coli SR481 (aroA mutant) harboring pMON9719, desalted cell extract
Put plainly: EPSP synthase activity assay, extracts of E. coli SR481 harboring pMON9719. Type of data set: biochemical. The conditions noted are these: cells containing pMON9719, no glyphosate. The protocol: E. coli SR481 cells harboring pMON9719 or pMON9729 were grown under conditions which induce the expression of the RecA promoter. The cells were lysed and the extracts were assayed for EPSP synthase activity.
Specifically, the bacterial cell paste was washed twice with 0.9% saline, suspended in buffer (100 mM Tris-HCl, 5 mM dithiothreitol, 1 mM EDTA, 10% glycerol and 1 mM benzamidine HCl) passed twice through the French Pressure Cell at 1000 psi. The cell abstract was separated from the cells by centrifuging at 15,000×gravity for 10 mins. at 5° C. It was desalted using Sephadex G-50 (Pharmacia, Piscataway, N.J.). The desalted extract was assayed for EPSP synthase activity as follows:
To an assay mix (40 μl) containing shikimate-3-phosphate (2 mM), ^14 C-phosphoenolpyruvate (1 mM, 1.2 mCi/mmol), ammonium molybdate (0.1 mM), potassium fluoride (5 mM), in 50 mM HEPES-KOH, pH 7, was added 10 μl of the extract and incubated at 25° C. for 2 mins. […] The radioactivity of the eluent was monitored using a Radiometric Flo-One Beta Instrument. […] The EPSP synthase activity was determined by measurement of the conversion of ^14 C-PEP to ^14 […], both of which are resolved under the above conditions of chromatography. The protein content of the extract was determined by the method of Bradford (Biorad Labs, Calif.). […]

This note sets out measurements from US5145783A, “Glyphosate-tolerant 5-endolpyruvyl-3-phosphoshikimate synthase” (Monsanto Company, priority 1990, dated 1992).

B1: pMON9719: wild-type EPSP synthase of tomato expressed in E. coli SR481 under the recA promoter, cell extract (protein, UniProt P10748 77-520, looked up)
3-phosphoshikimate …: KPHEIVLXPIKDISGTVKLPGSKSLSNRILLLAALSEGRTVVDNLLSSDDIHYMLGALKTLGLHVEDDNENQRAIVEGCGGQFPVGKKSEEEIQLFLGNAGTAMRPLTAAVTVAGGHSRYVLDGVPRMRERPIGDLVDGLKQLGAEVDCSLGTNCPPVRIVSKGGLPGGKVKLSGSISSQYLTALLMAAPLALGDVEIEIIDKLISVPYVEMTLKLMERFGVFVEHSSGWDRFLVKGGQKYKSPGKAFVEGDASSASYFLAGAAVTGGTVTVEGCGTSSLQGDVKFAEVLEKMGAEVTWTENSVTVKGPPRNSSGMKHLRAIDVNMNKMPDVAMTLAVVALFADGPTTIRDVASWRVKETERMIAICTELRKLGATVVEGSDYCIITPPEKLNVTEIDTYDDHRMAMAFSLAACADVPVTIKNPGCTRKTFPDYFEVLQKYSKH
modifications: X: residue not identified in the source
notes: wild-type EPSP synthase of tomato expressed in E. coli SR481 under the recA promoter, cell extract
Take B1: the “EPSP synthase activity (specific activity of the extract)” value is “about 1600 nanomoles of EPSP synthase formed/minute/mg protein”.
